In assay [1] the target is T1, recombinant human CD39-L2 (NTPDase6, ENTPD6) (human, UniProt O75354 61-484, limits assumed).
T1 construct: Genbank NP_001238 is printed
T1 sequence: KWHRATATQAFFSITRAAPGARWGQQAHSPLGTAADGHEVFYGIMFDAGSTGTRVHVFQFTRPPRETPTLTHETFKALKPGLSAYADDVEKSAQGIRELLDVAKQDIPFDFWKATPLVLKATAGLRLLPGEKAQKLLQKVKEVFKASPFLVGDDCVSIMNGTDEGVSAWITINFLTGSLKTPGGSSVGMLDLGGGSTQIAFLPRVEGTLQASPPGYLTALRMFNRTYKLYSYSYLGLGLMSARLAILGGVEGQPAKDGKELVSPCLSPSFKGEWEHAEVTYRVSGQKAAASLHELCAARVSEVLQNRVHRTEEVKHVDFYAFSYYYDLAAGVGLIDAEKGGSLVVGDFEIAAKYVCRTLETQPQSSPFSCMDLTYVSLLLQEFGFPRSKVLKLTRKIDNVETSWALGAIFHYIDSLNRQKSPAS
As to the kind of experiment: ELISA on plate-coated recombinant huCD39 L2; the single curve has no legend on the sheet, I-394 by the legend paragraph 70. As to the method:
(§1) Wells were washed in TBS Tween 20, and further saturated 2H at RT in TBS Blocking buffer. Dose range concentration of primary antibody was incubated in TBS blocking buffer for 2 h at RT. Wells were washed in TBS Tween 20. […] Optical density was measured on Enspire™ at OD=450.
For orientation: In an ELISA, binding on a coated surface is turned into a signal by an enzyme label.

Assay [2] has as its target T2, recombinant human CD39-L4 (NTPDase5, ENTPD5) (human, UniProt O75356 25-428).
T2 construct: Genbank NP_001240 (precursor) is printed
T2 sequence: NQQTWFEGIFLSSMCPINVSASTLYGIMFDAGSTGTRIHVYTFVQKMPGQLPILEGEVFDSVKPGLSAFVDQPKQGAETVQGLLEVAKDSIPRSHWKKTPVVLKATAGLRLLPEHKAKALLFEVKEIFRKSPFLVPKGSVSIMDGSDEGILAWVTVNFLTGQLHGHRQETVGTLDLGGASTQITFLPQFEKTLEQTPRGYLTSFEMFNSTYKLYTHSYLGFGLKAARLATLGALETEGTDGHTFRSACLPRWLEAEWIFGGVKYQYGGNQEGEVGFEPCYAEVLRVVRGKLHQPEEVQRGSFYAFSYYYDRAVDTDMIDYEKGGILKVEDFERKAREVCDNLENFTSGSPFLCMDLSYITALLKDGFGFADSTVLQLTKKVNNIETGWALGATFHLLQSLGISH
As to the kind of experiment: ELISA on plate-coated recombinant huCD39 L4; the single curve has no legend on the sheet, I-394 by the legend paragraph 70. As to the method:
as §1

The next assay deals with T3, human CD39 mutant 5 (human, UniProt P49961 1-510).
T3 construct: Expressed on Hek-293T cells; also called M5
T3 chain: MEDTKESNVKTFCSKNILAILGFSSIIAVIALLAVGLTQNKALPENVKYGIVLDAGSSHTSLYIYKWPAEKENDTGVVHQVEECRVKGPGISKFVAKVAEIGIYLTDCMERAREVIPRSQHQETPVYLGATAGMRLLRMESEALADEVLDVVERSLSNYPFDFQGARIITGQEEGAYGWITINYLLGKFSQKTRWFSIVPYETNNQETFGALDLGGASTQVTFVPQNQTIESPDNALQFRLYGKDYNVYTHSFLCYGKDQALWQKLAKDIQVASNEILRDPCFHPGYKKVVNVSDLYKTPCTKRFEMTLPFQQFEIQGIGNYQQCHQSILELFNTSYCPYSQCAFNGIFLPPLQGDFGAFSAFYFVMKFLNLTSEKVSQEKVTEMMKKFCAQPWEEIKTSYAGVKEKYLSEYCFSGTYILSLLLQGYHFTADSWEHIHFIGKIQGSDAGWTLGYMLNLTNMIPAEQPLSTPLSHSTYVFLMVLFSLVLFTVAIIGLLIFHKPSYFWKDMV
As to the kind of experiment: flow cytometry on Hek-293T cells expressing CD39 mutant 5 (panel M5); unstained (US) median 8,98; antibody concentration not shown. As for the experimental part:
(§2) Mutants were transfected in Hek-293T cells, as shown in the table 1, using numbering of SEQ ID NO: 1. […] Mutant 19 includes substitutions at residues R138, M139 and E142.
(§3) In order to define the epitopes of the further anti-CD39 antibodies of Example 5, they were tested for loss of binding to the panel of CD39 mutants as described in Example 1 and Table 1. Mutants were transfected in Hek-293T cells, as shown in the table 1, using numbering of SEQ ID NO: 1.Dose-ranges of test antibodies (10-2.5-0.625-0.1563-0.0391-0.0098-0.0024-0.0006 μg/ml) are tested on the 20 generated mutants by flow cytometry.
In general terms: A flow cytometer gives signals particle by particle.

In the next assay the target is T4, human CD39 mutant 19 (human, UniProt P49961 1-510).
T4 construct: Expressed on Hek-293T cells; also called M19
T4 chain: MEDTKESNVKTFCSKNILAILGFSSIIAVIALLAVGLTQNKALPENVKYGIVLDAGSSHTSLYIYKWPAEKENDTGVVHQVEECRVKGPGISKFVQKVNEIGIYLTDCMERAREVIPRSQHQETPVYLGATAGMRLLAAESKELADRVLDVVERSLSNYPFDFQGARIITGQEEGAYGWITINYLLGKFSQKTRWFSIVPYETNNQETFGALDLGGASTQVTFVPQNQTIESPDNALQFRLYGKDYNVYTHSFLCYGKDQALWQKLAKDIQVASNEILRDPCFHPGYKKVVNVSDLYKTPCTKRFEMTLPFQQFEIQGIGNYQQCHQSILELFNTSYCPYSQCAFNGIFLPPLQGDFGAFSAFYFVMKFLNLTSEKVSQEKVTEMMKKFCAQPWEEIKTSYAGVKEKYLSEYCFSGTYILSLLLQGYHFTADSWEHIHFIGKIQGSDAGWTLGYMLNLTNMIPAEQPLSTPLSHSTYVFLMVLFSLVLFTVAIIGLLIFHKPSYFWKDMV
As to the kind of experiment: flow cytometry on Hek-293T cells expressing CD39 mutant 19 (panel M19); unstained (US) median 8,98; antibody concentration not shown. As for the experimental part:
as §2, §3

B1: antibody I-394 (antibody, V domains shown)
VH: EVQLQQSGPELVKPGASVKMSCKASGYTFTDYNMHWVKQSHGRTLEWIGYIVPLNGGSTFNQKFKGRATLTVNTSSRTAYMELRSLTSEDSAAYYCARGGTRFAYWGQGTLVTVSA
VL: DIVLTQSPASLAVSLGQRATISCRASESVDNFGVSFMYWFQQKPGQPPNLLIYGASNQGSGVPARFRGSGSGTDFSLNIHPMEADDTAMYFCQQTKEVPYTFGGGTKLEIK
notes: Mouse variable regions; Produced in CHO with human IgG1 constant domains carrying L234A/L235E/G237A/A330S/P331S (Kabat EU numbering) and a human Ck constant domain
For the molecule B1, the binding result in assay [1] and in assay [2] was “no binding (tested: about 50 µg/ml)” in each case. The “Median : Comp-Alexa Fluor 647-A” value with human CD39 mutant 5 amounted to 1470; with human CD39 mutant 19, 24.4.
